Data reported in patent publication US12123009B2, “Methods and compositions for PPO herbicide tolerance in plants” (Monsanto Technology LLC, priority 2015, dated 2024).

B1: H_N50: microbial HemG protoporphyrinogen oxidase, SEQ ID NO:7 (SEQ ID NO:16 lacking start methionine) (protein, listed as Shimwellia blattae)
chain: MKTLILFSTRDGQTHKIARHIAGVLEEQGKACELVDLLQPGEPDWSTVECVVLGASIRYGHFHKSFIRFVNTHAQRLNNMPGALFTVNLVARKPEKQSPQTNSYTRKFLAASPWQPQRCQVFAGALRYPRYSWYDRMMIRLIMKMAGGETDTRKEVEYTDWQSVTRFAREIAQLPGETR
B2: H_N30: microbial HemG protoporphyrinogen oxidase, SEQ ID NO:5 (SEQ ID NO:14 lacking start methionine) (protein, listed as Erwinia toletana)
chain: MKALILFSSREGQTREIASYIANSIKEEMECDVFNILRVEQIDWSQYDRVLIGGSIHYGHFHPAVAKFVKRHLHELQQRSSGFFCVNLTARKADKRTPQTNAYMRKFLLQSPWQPDCCAVFAGALRYTRYRWFDRVMIQLIMRMTGGETDTSKEVEYTDWTQVARFAQEFAHLPGKTQ
B3: H_N20: microbial HemG protoporphyrinogen oxidase, SEQ ID NO:2 (SEQ ID NO:12 lacking start methionine) (protein, listed as Pantoea ananatis)
chain: MKALILFSTRDGQTQKIASAIADEIKGQQSCDVINIQDAKTLDWQQYDRVLIGASIRYGHFQPVVNEFVKHNLLALQQRVSGFFSVNLTARKPEKRSPETNAYTVKFLAQSPWQPDCCAVFAGALYYPRYRWFDRVMIQFIMRMTGGETDASKEVEYTDWQQVQRFARDFAQLPGKSY
B4: H_N100: microbial HemG protoporphyrinogen oxidase, SEQ ID NO:9 (SEQ ID NO:17 lacking start methionine; variant 20) (protein, listed as Enterobacter cloacae)
chain: MKTLILFSTRDGQTREIAAFLASELKEQGIYADVINLNRTEEIAWQEYDRVVIGASIRYGHFHPAVDRFVKKHTETLNSLPGAFFSVNLVARKAEKRTPQTNSYTRKFLLNSPWKPAACAVFAGALRYPRYRWYDRFMIRLIMKMTGGETDTRKEVVYTDWSQVASFAREIVQLTRSSRL

How the values were obtained:
soybean plantlets = assay: High-throughput soybean screening for herbicide tolerance (plantlets); type: in vivo, soybean (A3555); design: key: 0 for poor tolerance, high damage, low green coloration; 1 for some tolerance, average damage, moderate green coloration; 2 for good tolerance, low damage, high green coloration; conditions: S-3100 spray five weeks post-transformation, scored day four
Excerpt: A high-throughput plant transformation and screening method was used to evaluate large numbers of constructs in transgenic plants for herbicide tolerance in early transformation plantlet tissue. This allowed for faster and higher volume screening of construct configurations and PPO enzymes.
This permitted the side-by-side comparison of seven different HemG PPO enzymes with thirty-seven different targeting peptides using the same promoter and 3′UTR elements for gene expression. These plant transformation constructs were used to transform soybean excised embryos (germplasm A3555) using A. tumefaciens and standard methods known in the art. Four hundred explants were inoculated for each construct resulting in twelve containers per construct. A sterile PPO herbicide solution was used for herbicide tolerance testing. The herbicide solution consisted of 0.3 g of S-3100 in crop oil concentrate (5.0 mL) and 495 mL of deionized water. This was filtered through a 0.45 micron Nalgene® Rapid-Flow™ Tissue Culture Filter Unit and Surfactant-Free Cellulose Acetate membrane filter unit (VWR, Radnor, PA, USA). The resulting sterile solution was shaken before application.
At five weeks post-transformation, four of the twelve plant containers per construct were sprayed with two passes of the sterile PPO herbicide solution. The treated plantlets were then enclosed in the container and received at least 15 hours of light exposure post spray each day for four days. At the end of day four post application of S-3100, the treated plantlets were photographed and scored on a visual scale of green coloration (green coloration was representative of healthy photosynthetic plant tissue as compared to photo-bleached tissue) versus damage. The scoring values were 0 for poor tolerance, high damage, low green coloration; 1 for some tolerance, average damage, moderate green coloration; and 2 for good tolerance, low damage, high green coloration. The scoring for each construct is presented in Table 9, where n.d. indicates the analysis was not conducted.

R0 soybean plants = assay: R0 transgenic soybean herbicide tolerance at eleven weeks; type: in vivo; conditions: R0 plants sprayed with S-3100 at eleven weeks, rated seven days after treatment
Method: The plantlets in the non-sprayed containers corresponding to constructs having a score of 2 were transplanted at approximately 7 weeks post transformation and grown as R0 plants using standard methods known in the art. Plantlets corresponding to non-tolerant scores of 0 and 1 were also grown to serve as negative controls. The R0 plants were grown in a greenhouse under long-day nursery conditions (18 hr light at 80° F. then 6 hr dark at 74° F.) for approximately four weeks. At eleven weeks, the R0 plants were sprayed with two passes of the same herbicide solution (0.3 g of 5-3100) described above. Herbicide injury ratings were collected seven days after treatment.
The results of the herbicide tolerance application at eleven weeks to the R0 plants confirmed the low percent injury rating scores observed in the high-throughput screen at five weeks. Any injury rating of 30% or above was equivalent to non-transgenic soybean injury ratings. A few of the constructs stood out as providing very good tolerance to the herbicide application. […] Data are provided in Table 10, where n.d. indicates the analysis was not conducted.

Molecule | coloration score (soybean plantlets; TP9) | coloration score (soybean plantlets; TP10) | coloration score (soybean plantlets; TP11) | coloration score (soybean plantlets; TP12) | coloration score (soybean plantlets; TP13) | coloration score (soybean plantlets; TP14) | coloration score (soybean plantlets; TP15) | coloration score (soybean plantlets; TP16) | coloration score (soybean plantlets; TP17) | coloration score (soybean plantlets; TP18) | coloration score (soybean plantlets; TP19) | coloration score (soybean plantlets; TP21) | coloration score (soybean plantlets; TP22) | coloration score (soybean plantlets; TP23) | coloration score (soybean plantlets; TP24) | coloration score (soybean plantlets; TP27) | coloration score (soybean plantlets; TP28) | coloration score (soybean plantlets; TP29) | coloration score (soybean plantlets; TP33) | percent injury score (R0 soybean plants; TP15) | further results
B1 | 1 | 1 | 0 | 1 | 1 | 1 | 2 | 0 | 1 | 1 | 0 | 1 | 2 | 1 | 1 | 1 | 1 | 1 | 1 | 40% | coloration score (soybean plantlets; TP25): 2; coloration score (soybean plantlets; TP26): 1; coloration score (soybean plantlets; TP30): 1; coloration score (soybean plantlets; TP31): 0; coloration score (soybean plantlets; TP32): 1; coloration score (soybean plantlets; TP34): 0; coloration score (soybean plantlets; TP36): 0; coloration score (soybean plantlets; TP37): 0; percent injury score (R0 soybean plants; TP9): 40%; percent injury score (R0 soybean plants; TP13): 40%; percent injury score (R0 soybean plants; TP14): 40%; percent injury score (R0 soybean plants; TP17): 40%; percent injury score (R0 soybean plants; TP22): 40%; percent injury score (R0 soybean plants; TP25): 35%
B2 | 1 | 0 | 1 | 1 | 1 | – | 1 | – | 1 | 0 | 0 | – | – | – | 1 | 0 | 0 | 1 | 1 | 35% | coloration score (soybean plantlets; TP26): 0; percent injury score (R0 soybean plants; TP1): 5%; percent injury score (R0 soybean plants; TP9): 35%; percent injury score (R0 soybean plants; TP11): 35%; percent injury score (R0 soybean plants; TP26): 35%
B3 | 1 | – | 1 | 2 | 2 | 0 | 1 | 1 | 2 | 1 | 1 | 0 | 1 | 1 | 1 | 1 | 1 | 1 | 1 | 30% | coloration score (soybean plantlets; TP20): 2; coloration score (soybean plantlets; TP25): 1; coloration score (soybean plantlets; TP26): 1; coloration score (soybean plantlets; TP30): 1; coloration score (soybean plantlets; TP31): 1; coloration score (soybean plantlets; TP32): 0; percent injury score (R0 soybean plants; TP12): 20%; percent injury score (R0 soybean plants; TP13): 20%; percent injury score (R0 soybean plants; TP17): 25%; percent injury score (R0 soybean plants; TP20): 20%; percent injury score (R0 soybean plants; TP29): 30%
B4 | 0 | 1 | 0 | 2 | 0 | 1 | 2 | 1 | 1 | 1 | 1 | 0 | 2 | 2 | 0 | 1 | 1 | 1 | 1 | 30% | coloration score (soybean plantlets; TP20): 2; coloration score (soybean plantlets; TP25): 1; coloration score (soybean plantlets; TP30): 1; coloration score (soybean plantlets; TP31): 1; coloration score (soybean plantlets; TP32): 2; coloration score (soybean plantlets; TP34): 0; coloration score (soybean plantlets; TP35): 1; coloration score (soybean plantlets; TP36): 1; percent injury score (R0 soybean plants; TP10): 35%; percent injury score (R0 soybean plants; TP12): 50%; percent injury score (R0 soybean plants; TP20): 35%; percent injury score (R0 soybean plants; TP22): 30%; percent injury score (R0 soybean plants; TP23): 35%; percent injury score (R0 soybean plants; TP28): 35%; percent injury score (R0 soybean plants; TP29): 40%; percent injury score (R0 soybean plants; TP32): 40%; percent injury score (R0 soybean plants; TP35): 35%
